One block for each molecule: values may come before it.
Assays:
[1] = tested on: MCF-7^EphA2 cells; test: Colony formation in soft agar, MCF-7^EphA2 cells; type: cell-based
Protocol: (§1) Tumor cells were suspended in soft agar. Colony formation in soft agar was assayed as described in Zelinski et al. (2001, Cancer Res. 61: 2301-6). Antibodies or a control solution (PBS) was included in bottom and top agar solutions. […] Colony formation was scored microscopically using an Olympus CK-3 inverted phase-contrast microscope outfitted with a 40× objective. Clusters containing at least three cells were scored as a positive. The average number of colonies per high-powered field is shown. Ten separate high-power microscopic fields were averaged in each experiment, and the results shown are representative of at least three separate experiments.
(§2) A549 malignant lung cancer cells were incubated with either 10 μg/ml or 2.5 μg/ml of EA5 or EA2 monoclonal antibodies or a control (PBS). […] Benign MCF-7 breast epithelial tumor cells were converted to malignant cells by the overexpression of EphA2 (MCF-7^EphA2). Both tumor cell types were incubated with either EA5 monoclonal antibodies or a control (PBS). […] Results are reported as colonies per high-powered field (HPF).
(§3) Growth assays were conducted as follows. MCF-7^neo (control cells) or MCF7^EphA2 cells were seeded in 96-well plates. […] Colony formation in soft agar was performed as previously described (Zelinski et al., 2001, Cancer Res. 61: 2301-6) and scored microscopically, defining clusters of at least three cells as a positive. The data represent the average of ten separate high-power microscopic fields from each sample and representative of at least three separate experiments. Error bars represent the standard error of the mean of at least three different experiments as determined using Microsoft Excel software.
Sensitivity of MCF-7^EphA2 cells to tamoxifen was measured.
Growth MCF-7^EphA2 cells which had decreased EphA2 expression levels was assayed in soft agar.

[2] = tested on: control MCF-7 cells; test: Colony formation in soft agar, control MCF-7 cells; type: cell-based
Protocol: as §1, §3
Sensitivity of MCF-7^EphA2 cells to tamoxifen was measured. […]

[3] = tested on: MCF-7^EphA2 cells; test: Tumorigenic potential of MCF-7^EphA2 vs MCF-7^neo cells in mammary fat pad under tamoxifen; type: in vivo, athymic (nu/nu) mice; conditions: MCF-7^EphA2 vs control MCF-7^neo; tamoxifen 1 mg oral gavage 6 days per week, supplemental estrogen
Protocol: Six to eight week-old athymic (nu/nu) mice were purchased from Harlan Sprague Dawley (Indianapolis, Ind.). When indicated, a controlled release estradiol pellet (0.72 mg 17β-estradiol, 60-day formulation) was injected subcutaneously via a sterile 14-gauge trocar 24 hours prior to tumor implantation and pellets were replaced every 60 days for those experiments spanning >60 days in duration. 1×10^6 MCF-7^neo or MCF7^EphA2 cells were injected into the mammary fat pad under direct visualization. When indicated, tamoxifen (1 mg) was administered by oral gavage 6 days per week.

[4] = tested on: estrogen receptor; test: Estrogen receptor activity, ERE-TK-CAT reporter; type: cell-based; conditions: control and MCF-7^EphA2 cells, tamoxifen 10^−6 M
Protocol: Estrogen receptor activity was measured using ERE-TK-CAT vector (which encodes a single ERE; a generous gift from Dr. Nakshatri, Indiana University School of Medicine) in the unstimulated state, after estradiol (10^−8 M) stimulation and tamoxifen (10^−6 M) inhibition. Cells were plated in phenol red free, charcoal stripped sera for 2 days and transfected with ERE-TK-CAT (5 μg) using calcium phosphate method. The β-galactosidase expression vector RSV/β-galactosidase (2 μg, Dr. Nakshatri's gift) was cotransfected as a control. Fresh media including the appropriate selection drugs were added 24 hours after transfection. Cells were harvested after 24 hours and CAT activity was evaluated as described (Nakshatri et al., 1997, Mol. Cell. Biol. 17: 3629-39).

[5] = target: T1, EphA2-Ephrin A1-Fc complex (Homo sapiens, UniProt P29317); test: Binding to EphA2-Ephrin A1-Fc complex on microtiter plate; conditions: EphA2-Fc bound to immobilized Ephrin A1-Fc
T1 construct: consisting of the extracellular domain of EphA2 linked to human IgG1 constant region
T1 sequence (P29317 24-537 limits assumed, one chain of several): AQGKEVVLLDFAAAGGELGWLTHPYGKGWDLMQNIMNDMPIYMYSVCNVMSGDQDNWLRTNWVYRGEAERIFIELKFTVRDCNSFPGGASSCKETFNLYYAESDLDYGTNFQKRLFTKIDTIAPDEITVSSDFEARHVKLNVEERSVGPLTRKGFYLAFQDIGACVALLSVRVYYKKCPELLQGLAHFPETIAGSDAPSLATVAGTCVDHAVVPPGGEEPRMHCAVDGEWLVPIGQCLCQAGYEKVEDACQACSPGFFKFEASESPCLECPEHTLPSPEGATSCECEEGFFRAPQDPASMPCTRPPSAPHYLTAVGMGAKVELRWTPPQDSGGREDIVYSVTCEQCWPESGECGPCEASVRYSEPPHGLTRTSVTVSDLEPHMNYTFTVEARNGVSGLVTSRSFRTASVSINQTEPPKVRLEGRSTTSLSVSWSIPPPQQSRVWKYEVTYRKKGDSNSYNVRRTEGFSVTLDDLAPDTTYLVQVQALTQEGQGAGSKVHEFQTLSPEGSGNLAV
Protocol: (§4) A microtiter plate was coated with […] Ephrin A1-Fc overnight at 4° C. A fusion protein consisting of the extracellular domain of EphA2 linked to human IgG1 constant region (EphA2-Fc) was incubated with and bound to the immobilized Ephrin A1-Fc. Biotinylated Ephrin A1-Fc or EA5 was incubated with the EphA2-Ephrin A1-Fc complex and amount of binding was measured.

[6] = target: T1, EphA2-Ephrin A1-Fc complex; test: Competition for labeled EA5 on EphA2-Ephrin A1-Fc complex; type: binding; conditions: biotinylated EA5 10 μg/ml, 30 min.
Protocol: as §4
The EphA2-Ephrin A1-Fc complex was prepared as described above. Biotinylated EA5 (10 μg/ml) was then incubated with the complex for 30 min. Unlabeled competitor was incubated with EphA2-Ephrin A1-Fc-EA5 complex in the indicated amount. Unlabeled EA5 could displace the labeled EA5 at concentrations of 100 ng/ml or greater.

[7] = tested on: A549 malignant lung cancer cells; test: Colony formation in soft agar, A549 cells; type: cell-based; conditions: 10 μg/ml or 2.5 μg/ml, 7 days at 37° C., vs PBS
Protocol: Tumor cells were suspended in soft agar. Colony formation in soft agar was assayed as described in Zelinski et al. (2001, Cancer Res. 61: 2301-6). Antibodies or a control solution (PBS) was included in bottom and top agar solutions. Cells were suspended in soft agar for 7 days at 37° C. in the presence of purified antibody or control solution (PBS), administered at the time of suspension. Colony formation was scored microscopically using an Olympus CK-3 inverted phase-contrast microscope outfitted with a 40× objective. Clusters containing at least three cells were scored as a positive. The average number of colonies per high-powered field is shown. Ten separate high-power microscopic fields were averaged in each experiment, and the results shown are representative of at least three separate experiments.
as §2

[8] = target: T2, EphA2 (Homo sapiens, UniProt P29317); test: EphA2 tyrosine phosphorylation and degradation in A549 cells (immunoprecipitation / western blot); type: cell-based; design: endogenous in cells; conditions: A549 monolayers
T2 sequence (P29317 24-976): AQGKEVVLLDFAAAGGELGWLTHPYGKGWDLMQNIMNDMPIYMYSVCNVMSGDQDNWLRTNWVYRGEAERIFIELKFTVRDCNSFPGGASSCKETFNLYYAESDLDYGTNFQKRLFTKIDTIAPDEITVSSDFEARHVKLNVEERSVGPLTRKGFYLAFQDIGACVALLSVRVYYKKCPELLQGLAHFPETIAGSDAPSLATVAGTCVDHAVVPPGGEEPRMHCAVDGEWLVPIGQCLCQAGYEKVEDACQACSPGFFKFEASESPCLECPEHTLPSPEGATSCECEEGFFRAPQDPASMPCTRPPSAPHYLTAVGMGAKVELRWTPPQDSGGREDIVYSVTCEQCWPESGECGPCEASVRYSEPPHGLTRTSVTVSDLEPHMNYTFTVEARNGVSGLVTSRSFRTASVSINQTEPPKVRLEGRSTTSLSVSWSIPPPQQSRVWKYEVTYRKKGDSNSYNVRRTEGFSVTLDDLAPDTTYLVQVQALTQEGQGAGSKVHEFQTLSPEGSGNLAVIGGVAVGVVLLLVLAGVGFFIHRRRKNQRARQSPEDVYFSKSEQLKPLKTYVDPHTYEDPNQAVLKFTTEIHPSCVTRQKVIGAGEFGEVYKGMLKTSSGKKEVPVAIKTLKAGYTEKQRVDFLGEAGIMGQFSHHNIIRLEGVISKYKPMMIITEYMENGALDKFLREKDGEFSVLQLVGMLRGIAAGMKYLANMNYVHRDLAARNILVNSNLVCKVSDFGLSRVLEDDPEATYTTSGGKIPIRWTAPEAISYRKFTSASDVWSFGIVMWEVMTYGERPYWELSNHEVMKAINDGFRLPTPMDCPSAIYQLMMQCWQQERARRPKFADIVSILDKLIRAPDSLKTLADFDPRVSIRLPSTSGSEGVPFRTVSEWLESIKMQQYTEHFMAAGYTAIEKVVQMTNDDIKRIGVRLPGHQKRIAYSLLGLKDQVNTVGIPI
Protocol: Western blot analyses and immunoprecipitations were performed as described previously (Zantek et al., 1999, Cell Growth Diff. 10: 629-38). Briefly, detergent extracts of cell monolayers were extracted in Tris-buffered saline containing 1% Triton X-100 (Sigma, St. Louis, Mo.). After measuring protein concentrations (BioRad, Hercules, Calif.), 1.5 mg of cell lysate was immunoprecipitated, resolved by SDS-PAGE and transferred to nitrocellulose (Protran, Schleicher and Schuell, Keene, N.H.). Antibody binding was detected by enhanced chemiluminescence (Pierce, Rockford, Ill.) and autoradiography (Kodak X-OMAT; Rochester, N.Y.).
Similar experiments were conducted with A549 cells. Monolayers of A549 cells were incubated at 37° C. in the presence of EA5 or EA2 or control (PBS) for either 10 minutes (FIGS. 2A-2B) or 5 hours (FIGS. 2C-2D). Cell lysates were then immunoprecipitated with an EphA2-specific antibody (D7), resolved by SDS-PAGE and subjected to western blot analysis with a phosphotyrosine-specific antibody (4G10, purchased from Upstate Biologicals, Inc., Lake Placid, N.Y.) (FIGS. 2A, 2C). The membranes were stripped and re-probed with the EphA2-specific antibody used in the immunoprecipitation (D7) as a loading control (FIGS. 2B, 2D). […] (FIG. 2D).

[9] = target: T2, EphA2; test: EphA2 tyrosine phosphorylation and degradation in MDA-MB-231 cells (immunoprecipitation / western blot); type: cell-based; design: endogenous in cells; host or cells: MDA-MB-231; MCF-10A; conditions: MDA-MB-231 monolayers
Protocol: EphA2 antibodies promoted tyrosine phosphorylation and degradation of EphA2 in MDA-MB-231 (FIGS. 1A-1C) cells. Monolayers of cells were incubated in the presence of EA5 (FIGS. 1A-1B, lanes 2, 3) or EA2 (FIGS. 1A-1B, lanes 4, 5) or control (FIGS. 1A-1B, lane 1) for 8 minutes at 37° C. Cell lysates were then immunoprecipitated with an EphA2-specific antibody (D7, purchased from Upstate Biologicals, Inc., Lake Placid, N.Y. and deposited with the American Type Tissue Collection on Dec. 8, 2000, and assigned ATCC number PTA 2755), resolved by SDS-PAGE and subjected to western blot analysis with a phosphotyrosine-specific antibody (4G10, purchased from Upstate Biologicals, Inc., Lake Placid, N.Y.) (FIG. 1A). The membranes were stripped and re-probed with the EphA2-specific antibody used in the immunoprecipitation (D7) as a loading control.
Western blot analyses and immunoprecipitations were performed as described previously (Zantek et al., 1999, Cell Growth Diff. 10: 629-38). Briefly, detergent extracts of cell monolayers were extracted in Tris-buffered saline containing 1% Triton X-100 (Sigma, St. Louis, Mo.). […] Antibody binding was detected by enhanced chemiluminescence (Pierce, Rockford, Ill.) and autoradiography (Kodak X-OMAT; Rochester, N.Y.). […]

[10] = target: T2, EphA2; test: Immunofluorescent staining of MDA-MB-231 and MCF-10A cells; type: binding; design: endogenous in cells; host or cells: MDA-MB-231; MCF-10A
From the text: The epitope of the EphA2 antibodies were characterized. EA5 and EA2 selectively bind to malignant cells. The anti-EphA2 monoclonal antibodies EA5 and EA2 bind malignant MDA-MB-231 breast epithelial tumor cells (FIGS. 11A-11B) more strongly than benign MCF-10A breast epithelial tumor cells (FIGS. 11C-11D) as shown by immunofluorescent staining. […] The anti-EphA2 monoclonal antibody EA5 identified malignant prostate cancer cells in formalin-fixed, paraffin-embedded archival clinical specimens (FIG. 12).
EA5 preferentially binds an EphA2 epitope exposed on cancer cells but not non-cancer cells. Non-transformed MCF-10A cells or transformed MDA-MB-231 cells were incubated with 10 μg/ml EA2 at 4° C. for 30 min. prior to fixation in a 3% formalin solution and immunolabeling with fluorophore-conjugated anti-mouse IgG.

Molecule: C[C@]12CC[C@@H]3c4ccc(O)cc4CC[C@H]3[C@@H]1CC[C@@H]2O [estradiol, 17β-estradiol, reference compound]
Effect of excess estradiol on tamoxifen inhibition of soft agar colonization ([1]; 1 μM tamoxifen and 1 μM 17β-estradiol, MCF-7 or MCF-7^EphA2 cells (FIG. 8A)): overcame the inhibitory effects of tamoxifen

Molecule: CC/C(=C(\c1ccccc1)c1ccc(OCCN(C)C)cc1)c1ccccc1 [tamoxifen]
inhibition at 1 µM ([1]; 336 h, MCF-7^EphA2 cells, 1 μM tamoxifen, 14 days (FIG. 8A), read-out: Inhibition of soft agar colonization): 25%
Decrease in soft agar colonization ([1]; MCF-7^EphA2 cells, tamoxifen 1 μM and/or EA5 10 μg/ml (FIG. 10C)): 25%
inhibition at 1 µM ([2]; Homo sapiens, MCF7, matched control MCF-7 cells, tamoxifen 1 μM (FIG. 10C), read-out: Inhibition of soft agar colonization): 75%
Reduction of soft agar colonization ([2]; control MCF-7 cells, 1 μM tamoxifen, 14 days (FIG. 8A)): at least 60%
Sensitivity of tumorigenic potential to tamoxifen [3]: less sensitive to tamoxifen
Estrogen receptor activity (CAT) [4]: remained sensitive to tamoxifen

B1: Ephrin A1-Fc: Fc form of the EphA2 ligand Ephrin A1, used biotinylated or unlabeled (protein)
chain: DRHTVFWNSSNPKFRNEDYTIHVQLNDYVDIICPHYEDHSVADAAMEQYILYLVEHEEYQLCQPQSKDQVRWQCNRPSAKHGPEKLSEKFQRFTPFTLGKEFKEGHSYYYISKPIHQHEDRCLRLKVTVSGKITHSPQAHDNPQEKRLAADDPEVRVLHSIGHS
modifications: left off: a dimerising Fc or GST
notes: Fc form of the EphA2 ligand Ephrin A1, used biotinylated or unlabeled
Amount of biotinylated protein bound to EphA2-Ephrin A1-Fc complex [5]: Very little additional Ephrin A1-Fc bound
Displacement of labeled EA5 by unlabeled competitor [6]: did not significantly displace labeled EA5

EphA2 phosphorylation ([8]; 10 minutes at 37° C.): increase in phosphorylation
EphA2 protein degradation ([8]; 5 hours at 37° C.): degradation of the EphA2 protein
EphA2 protein levels ([9]; 30 μg/ml, 24 hours at 37° C.): decrease
Levels of EphA2 phosphorylation ([9]; 8 minutes at 37° C., phosphotyrosine western blot): increase
Binding to malignant MDA-MB-231 vs benign MCF-10A cells [10]: more strongly
B2: EA2: EphA2 agonistic monoclonal antibody; hybridoma strain EA2.31, ATCC PTA-4380; VL SEQ ID NO:1, VH SEQ ID NO:5 (antibody, listed as Homo Sapiens, V domains shown)
VH: DVKLVESGGGLVKPGGSLKLSCAASGFTFSSYTMSWVRQTPEKRLEWVATISSGGTYTYYPDSVKGRFTISRDNAKNTLYLQMSSLKSEDTAMYYCTREAIFTYWGQGTLVTVSA
VL: DIKMTQSPSSMYASLGERVTITCKASQDINNYLSWFQQKPGKSPKTLIYRANRLVDGVPSRFSGSGSGQDYSLTISSLEYEDMGIYYCLKYDEFPYTFGGGTKLEIK
Cell growth in soft agar (colonies per high-powered field) [7]: inhibited cell growth in soft agar

Reference: patent US20050152899A1, “EphA2 agonistic monoclonal antibodies and methods of use thereof” (priority 2002, published 2005)
